Experimental data: the supplement of paper PMC10065799, “High-throughput profiling of sequence recognition by tyrosine kinases and SH2 domains using bacterial peptide display” (eLife, 2023)

How the values were obtained:
Grb2 SH2 = Grb2 SH2 (UniProt P62993); assay: SH2 binding enrichment of the phosphorylated peptide, bacterial display (enrichment ratio); higher = better substrate or ligand; peptides without Tyr show the background
c-Src SH2 = assay: as above
SHP2-C SH2 = assay: as above
Hck = Hck (UniProt P08631); assay: phosphorylation enrichment, bacterial display (enrichment ratio); higher = better substrate or ligand; peptides without Tyr show the background
Chain of Hck (P08631 whole entry, looked up): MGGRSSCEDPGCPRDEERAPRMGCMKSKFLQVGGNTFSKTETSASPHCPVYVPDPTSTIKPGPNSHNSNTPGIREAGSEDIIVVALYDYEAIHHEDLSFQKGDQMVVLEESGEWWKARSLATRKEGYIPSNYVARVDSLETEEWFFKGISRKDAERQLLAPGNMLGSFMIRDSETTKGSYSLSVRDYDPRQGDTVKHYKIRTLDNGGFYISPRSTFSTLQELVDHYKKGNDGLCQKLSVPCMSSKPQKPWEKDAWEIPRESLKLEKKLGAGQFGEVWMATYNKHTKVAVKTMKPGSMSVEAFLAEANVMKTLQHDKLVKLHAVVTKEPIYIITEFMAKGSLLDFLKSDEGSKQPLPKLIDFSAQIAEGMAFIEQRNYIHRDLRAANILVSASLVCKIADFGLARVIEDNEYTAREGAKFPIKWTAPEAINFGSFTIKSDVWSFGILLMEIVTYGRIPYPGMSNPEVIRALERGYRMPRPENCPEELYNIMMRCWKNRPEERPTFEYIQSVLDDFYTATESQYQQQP

c-Src = assay: as above
Fyn = Fyn (UniProt P06241); assay: as above
Chain of Fyn (P06241 whole entry, looked up): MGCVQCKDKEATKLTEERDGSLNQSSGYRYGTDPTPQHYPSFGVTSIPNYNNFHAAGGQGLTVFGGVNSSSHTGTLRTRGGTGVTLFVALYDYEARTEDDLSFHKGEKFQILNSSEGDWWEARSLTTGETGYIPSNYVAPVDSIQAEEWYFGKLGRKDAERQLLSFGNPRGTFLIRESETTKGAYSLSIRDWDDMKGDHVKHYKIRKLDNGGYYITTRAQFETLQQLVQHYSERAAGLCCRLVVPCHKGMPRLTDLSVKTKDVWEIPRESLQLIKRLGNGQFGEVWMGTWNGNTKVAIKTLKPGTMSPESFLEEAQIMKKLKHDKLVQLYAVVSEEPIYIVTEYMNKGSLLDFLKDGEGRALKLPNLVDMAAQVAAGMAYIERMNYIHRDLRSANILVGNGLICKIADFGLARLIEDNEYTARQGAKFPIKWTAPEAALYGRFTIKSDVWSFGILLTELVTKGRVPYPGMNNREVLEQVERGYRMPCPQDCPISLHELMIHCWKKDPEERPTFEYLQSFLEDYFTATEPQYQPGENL

c-Abl (mouse) = assay: as above
Jak2 = Jak2 (UniProt O60674); assay: as above
Fes = Fes (UniProt P07332); assay: as above
Chain of Fes (P07332 whole entry, looked up): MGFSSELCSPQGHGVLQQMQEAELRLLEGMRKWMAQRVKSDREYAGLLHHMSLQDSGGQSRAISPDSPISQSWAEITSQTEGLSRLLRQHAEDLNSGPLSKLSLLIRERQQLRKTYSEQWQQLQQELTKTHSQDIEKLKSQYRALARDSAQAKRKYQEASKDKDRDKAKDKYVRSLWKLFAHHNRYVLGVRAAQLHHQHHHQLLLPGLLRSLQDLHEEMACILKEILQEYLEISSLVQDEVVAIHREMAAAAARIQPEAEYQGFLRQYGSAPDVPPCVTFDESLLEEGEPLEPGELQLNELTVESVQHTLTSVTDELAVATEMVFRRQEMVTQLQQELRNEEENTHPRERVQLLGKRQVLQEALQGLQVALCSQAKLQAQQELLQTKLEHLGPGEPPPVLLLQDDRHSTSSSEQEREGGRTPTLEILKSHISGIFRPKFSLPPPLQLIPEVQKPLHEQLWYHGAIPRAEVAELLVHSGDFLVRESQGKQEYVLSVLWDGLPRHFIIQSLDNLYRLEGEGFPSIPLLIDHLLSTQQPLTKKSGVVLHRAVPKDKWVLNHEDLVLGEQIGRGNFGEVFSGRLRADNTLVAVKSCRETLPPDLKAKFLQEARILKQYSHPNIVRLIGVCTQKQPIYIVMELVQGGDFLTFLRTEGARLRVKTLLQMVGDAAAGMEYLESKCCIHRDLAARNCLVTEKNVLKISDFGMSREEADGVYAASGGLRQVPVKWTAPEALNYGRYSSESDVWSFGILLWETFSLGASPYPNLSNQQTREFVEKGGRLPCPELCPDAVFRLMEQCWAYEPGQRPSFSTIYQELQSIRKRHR

EPHB1 = EPHB1 (UniProt P54762); assay: as above
FGFR3 = FGFR3 (UniProt P22607); assay: as above
Chain of FGFR3 (P22607 whole entry, looked up): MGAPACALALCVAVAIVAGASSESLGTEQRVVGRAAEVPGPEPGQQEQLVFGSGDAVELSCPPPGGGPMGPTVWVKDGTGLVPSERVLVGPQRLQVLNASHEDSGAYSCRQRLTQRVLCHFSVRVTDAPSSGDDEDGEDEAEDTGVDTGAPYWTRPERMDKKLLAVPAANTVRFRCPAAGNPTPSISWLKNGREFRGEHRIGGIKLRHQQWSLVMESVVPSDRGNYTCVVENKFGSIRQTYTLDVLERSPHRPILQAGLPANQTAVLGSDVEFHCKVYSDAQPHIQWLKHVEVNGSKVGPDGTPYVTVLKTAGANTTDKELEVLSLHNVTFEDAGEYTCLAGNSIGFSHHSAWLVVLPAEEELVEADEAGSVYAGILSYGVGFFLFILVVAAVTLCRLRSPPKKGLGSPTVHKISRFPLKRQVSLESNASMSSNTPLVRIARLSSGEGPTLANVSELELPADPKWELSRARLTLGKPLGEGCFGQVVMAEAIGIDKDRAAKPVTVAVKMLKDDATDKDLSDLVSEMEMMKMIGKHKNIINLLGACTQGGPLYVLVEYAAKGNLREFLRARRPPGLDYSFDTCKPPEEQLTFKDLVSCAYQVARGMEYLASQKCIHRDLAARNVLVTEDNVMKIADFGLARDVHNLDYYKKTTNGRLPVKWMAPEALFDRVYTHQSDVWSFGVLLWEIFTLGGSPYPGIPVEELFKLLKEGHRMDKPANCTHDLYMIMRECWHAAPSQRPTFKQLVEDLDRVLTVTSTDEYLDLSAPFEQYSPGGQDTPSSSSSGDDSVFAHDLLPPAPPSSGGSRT

EPHB2 = EPHB2 (UniProt P29323); assay: as above
Chain of EPHB2 (P29323 whole entry, looked up): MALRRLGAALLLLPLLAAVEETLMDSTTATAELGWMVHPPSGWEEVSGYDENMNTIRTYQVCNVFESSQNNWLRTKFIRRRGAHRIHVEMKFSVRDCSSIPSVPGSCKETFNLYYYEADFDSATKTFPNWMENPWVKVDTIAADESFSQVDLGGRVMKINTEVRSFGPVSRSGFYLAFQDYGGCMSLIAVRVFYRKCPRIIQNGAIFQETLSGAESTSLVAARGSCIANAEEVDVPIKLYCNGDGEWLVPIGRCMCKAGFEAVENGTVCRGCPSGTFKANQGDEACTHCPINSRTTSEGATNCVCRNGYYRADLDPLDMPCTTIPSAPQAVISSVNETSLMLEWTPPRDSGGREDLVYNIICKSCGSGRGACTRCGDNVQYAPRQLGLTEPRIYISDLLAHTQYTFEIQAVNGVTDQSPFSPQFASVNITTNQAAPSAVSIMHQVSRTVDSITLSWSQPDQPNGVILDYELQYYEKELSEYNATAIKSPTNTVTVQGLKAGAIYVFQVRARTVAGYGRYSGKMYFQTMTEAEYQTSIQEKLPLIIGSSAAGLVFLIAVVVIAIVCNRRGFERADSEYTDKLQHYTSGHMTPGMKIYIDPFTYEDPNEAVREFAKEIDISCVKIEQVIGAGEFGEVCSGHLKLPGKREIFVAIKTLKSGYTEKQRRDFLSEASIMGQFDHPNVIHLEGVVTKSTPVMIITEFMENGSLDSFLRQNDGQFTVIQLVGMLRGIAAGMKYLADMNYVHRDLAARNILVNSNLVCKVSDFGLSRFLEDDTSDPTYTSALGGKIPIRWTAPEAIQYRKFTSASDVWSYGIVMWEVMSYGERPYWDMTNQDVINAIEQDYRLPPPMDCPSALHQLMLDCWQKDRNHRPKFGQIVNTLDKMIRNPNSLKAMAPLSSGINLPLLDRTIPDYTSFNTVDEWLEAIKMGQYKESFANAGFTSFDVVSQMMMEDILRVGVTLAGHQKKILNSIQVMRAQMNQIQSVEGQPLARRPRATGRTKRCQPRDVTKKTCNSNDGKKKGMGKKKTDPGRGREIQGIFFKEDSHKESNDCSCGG

FGFR1 = FGFR1 (UniProt P11362); assay: as above
MERTK = MERTK (UniProt Q12866); assay: as above
Chain of MERTK (Q12866 whole entry, looked up): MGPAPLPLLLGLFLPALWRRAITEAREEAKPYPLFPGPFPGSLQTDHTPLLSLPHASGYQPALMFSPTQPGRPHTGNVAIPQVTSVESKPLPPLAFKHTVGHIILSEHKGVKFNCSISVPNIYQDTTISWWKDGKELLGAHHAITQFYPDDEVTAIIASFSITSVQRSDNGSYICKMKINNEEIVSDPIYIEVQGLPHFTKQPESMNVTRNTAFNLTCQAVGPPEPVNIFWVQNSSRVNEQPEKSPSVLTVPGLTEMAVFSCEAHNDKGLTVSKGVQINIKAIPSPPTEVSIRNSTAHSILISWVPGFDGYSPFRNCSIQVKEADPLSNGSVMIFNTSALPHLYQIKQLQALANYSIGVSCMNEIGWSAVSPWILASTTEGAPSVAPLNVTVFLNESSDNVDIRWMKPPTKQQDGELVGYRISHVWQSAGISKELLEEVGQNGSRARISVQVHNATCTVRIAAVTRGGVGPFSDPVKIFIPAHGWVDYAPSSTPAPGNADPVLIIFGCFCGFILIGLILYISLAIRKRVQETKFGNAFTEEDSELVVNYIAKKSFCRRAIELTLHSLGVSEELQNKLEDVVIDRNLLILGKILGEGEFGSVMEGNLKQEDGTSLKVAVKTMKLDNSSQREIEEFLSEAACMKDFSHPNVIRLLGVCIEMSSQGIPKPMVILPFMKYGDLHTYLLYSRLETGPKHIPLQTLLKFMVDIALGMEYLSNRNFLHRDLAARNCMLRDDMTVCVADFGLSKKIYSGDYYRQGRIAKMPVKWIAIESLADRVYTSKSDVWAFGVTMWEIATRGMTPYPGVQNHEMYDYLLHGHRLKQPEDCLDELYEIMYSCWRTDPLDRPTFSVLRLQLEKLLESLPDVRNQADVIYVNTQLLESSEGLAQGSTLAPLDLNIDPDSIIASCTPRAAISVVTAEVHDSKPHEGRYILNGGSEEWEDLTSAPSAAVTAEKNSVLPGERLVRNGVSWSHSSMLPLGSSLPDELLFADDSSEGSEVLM

AncSZ = assay: as above
Fer (mouse) = assay: as above
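Throughout, for SH2 binding enrichment of the phosphorylated peptide, bacterial display: peptide library displayed on the E. coli surface as eCPX fusions, selected cells deep-sequenced, score is each peptide's frequency after selection divided by its frequency in the input.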
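Throughout, for phosphorylation enrichment, bacterial display: 11-residue human phosphosite peptides and single-mutation variants displayed on the E. coli surface, counted by deep sequencing, each peptide's frequency after selection divided by its frequency in the unselected input library; frequency after pTyr selection over input frequency; kinase dosed for 20-30% of maximal phosphorylation in three min.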

Row | Sequence | SH2 binding enrichment (Grb2 SH2) | SH2 binding enrichment (c-Src SH2) | SH2 binding enrichment (SHP2-C SH2) | phosphorylation enrichment (Hck) | phosphorylation enrichment (c-Src) | phosphorylation enrichment (Fyn) | phosphorylation enrichment (c-Abl (mouse)) | phosphorylation enrichment (Jak2) | phosphorylation enrichment (Fes) | phosphorylation enrichment (EPHB1) | phosphorylation enrichment (FGFR3) | phosphorylation enrichment (EPHB2) | phosphorylation enrichment (FGFR1) | phosphorylation enrichment (MERTK) | phosphorylation enrichment (AncSZ) | phosphorylation enrichment (Fer (mouse))
1 | APGDAYGDAGF [SYP_Y250_YF] | 0.714 | 0.469 | 0.545 | 0.566 | 0.464 | 0.494 | 0.565 | 0.8 | 0.905 | 0.514 | 0.521 | 0.548 | 0.484 | 0.426 | 0.938 | 0.491
2 | APGNAYGDAGF [SYP_Y250_D248N_YF] | 0.883 | 0.469 | 0.639 | 0.433 | 0.322 | 0.339 | 0.443 | 0.52 | 0.504 | 0.351 | 0.412 | 0.313 | 0.373 | 0.348 | 0.527 | 0.369
3 | AQVDTYCRHNY [HLA-DRB1_Y107_A103Q] | 1.05 | 0.485 | 0.707 | 0.523 | 0.369 | 0.549 | 0.693 | 0.764 | 0.866 | 0.536 | 0.679 | 0.47 | 0.512 | 0.447 | 0.752 | 0.517
4 | ARMTNYGLPRF [TSPAN12_Y138_YF] | 0.887 | 0.505 | 1.33 | 0.413 | 0.519 | 0.401 | 0.496 | 0.503 | 0.636 | 0.424 | 0.501 | 0.542 | 0.42 | 0.511 | 0.547 | 0.409
5 | ASKEPYYVRCI [MYO1D_Y585] | 0.702 | 0.481 | 0.391 | 0.464 | 0.595 | 0.521 | 1.19 | 1.21 | 1.17 | 0.877 | 0.813 | 0.802 | 0.686 | 0.618 | 1.35 | 0.557
6 | ASTDYNKRGDF [PDHA1_Y243_Y243N] | 0.954 | 0.446 | 0.512 | 0.332 | 0.47 | 0.456 | 0.469 | 0.468 | 0.599 | 0.348 | 0.402 | 0.474 | 0.421 | 0.405 | 0.502 | 0.378
7 | ATAKGYEPDAS [OTC_Y223_P220A] | 0.836 | 0.494 | 0.598 | 0.483 | 0.461 | 0.441 | 0.598 | 0.684 | 0.784 | 0.523 | 0.549 | 0.523 | 0.481 | 0.416 | 0.883 | 0.473
8 | AVPSLYASGRT [ACTA1_Y145_L142P] | 0.818 | 0.415 | 0.643 | 1.74 | 0.451 | 0.393 | 0.538 | 0.523 | 0.57 | 0.452 | 0.434 | 0.433 | 0.405 | 0.473 | 0.65 | 0.451

Continued, in another order:

Row | SH2 binding enrichment (Grb2 SH2) | SH2 binding enrichment (c-Src SH2) | SH2 binding enrichment (SHP2-C SH2) | Sequence | phosphorylation enrichment (Hck) | phosphorylation enrichment (c-Src) | phosphorylation enrichment (Fyn) | phosphorylation enrichment (c-Abl (mouse)) | phosphorylation enrichment (Jak2) | phosphorylation enrichment (Fes) | phosphorylation enrichment (EPHB1) | phosphorylation enrichment (FGFR3) | phosphorylation enrichment (EPHB2) | phosphorylation enrichment (FGFR1) | phosphorylation enrichment (MERTK) | phosphorylation enrichment (AncSZ) | phosphorylation enrichment (Fer (mouse))
9 | 1.49 | 0.908 | 1.43 | AQMAMYFWEMG [TRPM4_Y577] | 1.36 | 2.62 | 1.1 | 1.11 | 1.37 | 1.45 | 0.995 | 3.09 | 0.914 | 3.25 | 2.67 | 1.38 | 0.682
10 | 0.635 | 0.385 | 0.638 | ASPKSYPSQKH [CAP2_Y316_T311A] | 0.333 | 0.366 | 0.374 | 0.484 | 0.464 | 0.511 | 0.358 | 0.406 | 0.276 | 0.356 | 0.356 | 0.426 | 0.323
11 | 0.86 | 2.89 | 6.64 | ASYGPYTRVQS [FOXL2_Y258] | 0.793 | 0.559 | 0.673 | 0.464 | 0.539 | 0.623 | 0.415 | 0.427 | 0.583 | 0.422 | 0.376 | 0.551 | 0.438
12 | 1.08 | 1.58 | 3.3 | ATDLAYYLVRE [ASL_Y375_K380E] | 1.01 | 1.46 | 0.929 | 0.527 | 2.38 | 0.909 | 0.675 | 6.9 | 0.476 | 8.49 | 1.23 | 1.21 | 0.43
13 | 0.899 | 0.535 | 0.736 | ATVLNYLPKCI [A2M_Y817] | 0.599 | 0.385 | 0.437 | 0.714 | 0.858 | 0.987 | 0.662 | 0.649 | 0.542 | 0.519 | 0.392 | 0.747 | 0.438
14 | 0.965 | 0.518 | 0.745 | AVNNFYAAKKT [CCDC178_Y422_D420N] | 0.428 | 0.463 | 0.372 | 0.542 | 0.566 | 0.58 | 0.373 | 0.402 | 0.352 | 0.52 | 0.475 | 0.708 | 0.369
